Results reported in PMC5673899, “Structural basis for receptor recognition of pollen tube attraction peptides” (Nature Communications, 2017).
“Also recorded” adds a separate entry of the source.

What was measured:
[1] = tested on: SUMO-tagged MDIS1LRR; test: Gel filtration assay with SUMO-tagged MDIS1^LRR with or without MIK1^LRR; assay type: binding; settings: in the presence or absence of MIK1LRR, peer review file
Source text: We thank the reviewer for his/her high evaluation of our work and constructive […]
We have conducted more experiments including functional analysis of […]
bind to either MIK1 or MIK2 in their binding experiments. Considering the importance of genetic data published by other groups, I recommend that the authors conduct more binding experiments using MDIS1, MDIS2, and mixtures thereof with […]
interaction of AtLURE1.2 with the extracellular LRR domain of MIK1 (MIK1LRR) or MIK2 (MIK2LRR). All the proteins were purified from insect cells. As shown in […]
AtLURE1.2 in the assays, because the AtLURE1.2 and MIK1LRR or MIK2LRR were well separated in gel filtration. This is strikingly different from PRK6LRR with AtLURE1.2, which co-migrated when tested using the same assay. To further test interaction of AtLURE1.2 with MIK1LRR or MIK2LRR, we used ITC to quantify the binding affinity between the insect cell-generated AtLURE1.2 and MIK1LRR or […]
binding of AtLURE1.2 to MIK1LRR or MIK2LRR (Supplementary Fig. 6). In contrast to […]
into the MIK1LRR- or MIK2LRR-containing cell (Supplementary Fig. 6).
We then tested whether LURE1.2 interacts with MIK1LRR or MIK2LRR in the presence of the extracellular LRR domain of MDIS1 (MDIS1LRR). We therefore tried to purify MDIS1LRR from insect cells. However, although several constructs had been tested, expression of MDIS1LRR protein alone was undetectable. […]

[2] = tested on: AtPRK3^LRR and AtPRK6^LRR; test: Gel filtration assay, AtPRK3^LRR-AtPRK6^LRR interaction in the presence of AtLURE1.2; assay type: binding, Arabidopsis
Procedure: The AtPRK6^LRR and AtLURE1.2 proteins purified as described above were subjected to gel filtration (Hiload 200, GE Healthcare) in buffer containing 10 mM Bis-Tris pH 6.0 and 100 mM NaCl. A mixture of the purified AtPRK6^LRR and AtLURE1.2 proteins with a molar ratio of about 1:3 were incubated in 4 °C for 30 min before gel filtration analysis. Samples from relevant fractions were applied to SDS-PAGE and visualized by Coomassie blue staining. Similar procedures were used to verify the interaction of AtLURE1.2 with the other LRR proteins. […]
the presence or absence of AtLURE1.2 in vitro. […]
assay. Left panel: gel-filtration profile of the AtPRK3LRR and AtPRK6LRR proteins.
A280 (mAU), […] at 280 nm. Right panel: Coomassie blue staining of the peak fractions shown on the top following SDS–PAGE. M, molecular weight ladder (kDa). Numbers on top of SDS-PAGE indicate elution […]
AtLURE1.2 under gel filtration assay. The assays were performed as described in […]
(1 picture or pasted object on this page, not shown here)

B1: AtLURE1.2: mature form of AtLURE1.2 (residues 20–90), defensin-like cysteine-rich peptide expressed in insect cells (protein)
chain: TLINGSSDEERTYSFSPTTSPFDPRSLNQELKIGRIGYCFDCARACMRRGKYIRTCSFERKLCRCSISDIK
modifications: left off: His6, N-terminal, cleaved | SUMO, N-terminal, cleaved
notes: mature form of AtLURE1.2 (residues 20–90), defensin-like cysteine-rich peptide expressed in insect cells
[1]
  interaction in gel filtration: no interaction
[1]; listed as LURE1.2
  interaction in gel filtration: well separated from the two proteins
[2]
  AtPRK3^LRR-AtPRK6^LRR complex formation in the presence of AtLURE1.2: do not form a complex; also recorded: failed to detect AtPRK6^LRR−AtPRK3^LRR interaction
